Results: patent US20210179728A1 (OSE IMMUNOTHERAPEUTICS, published 2021)
Blank lines part the entries; values can stand above or below the binder they belong to.

Tests used:
[1] = biological target: T1, PDL1Fc (human, UniProt Q9NZQ7 19-238); assay: ELISA: modified antibody (concentration on the axis) captured on SIRPa-His, then PDL1Fc, detected with mouse anti-human PDL1 [panel PD1]
T1 construct: not shown: Fc; not specified
From the text: (§1) FIG. 24. Ligand binding assay with the different modified anti-SIRPa antibodies by ELISA.

[2] = biological target: T2, recombinant hSIRPa (Sino Biologicals, reference 11612-H08H) (human, UniProt P78324 31-370); assay: competition ELISA on coated SIRPa-His; competitor biotinylated CD47-Fc at 6 ug/ml, streptavidin-peroxidase [panel PD1]
T2 construct: also called SIRPa-His; human SIRPa-His; not shown: His tag (histidine tail)
Method: (§2) Method: For competitive ELISA assay, recombinant hSIRPa (Sino Biologicals, Beijing, China; reference 11612-H08H) was immobilized on plastic at 0.5 μg/ml in carbonate buffer (pH9.2).

[3] = biological target: T2, recombinant hSIRPa (Sino Biologicals, …); assay: ELISA on immobilized SIRPa-His, peroxidase anti-human IgG, DO 450nm [panel PD1]
Method: (§3) Method: For ELISA assay, recombinant hSIRPa (Sino Biologicals, Beijing, China; reference 11612-H08H) was immobilized on plastic at 0.5 μg/ml in carbonate buffer (pH9.2) and different modified anti-SIRPa antibodies were added to measure binding to SIRPa.

[4] = biological target: T3, CD28Fc (human, UniProt P10747 19-152, limits assumed); assay: ELISA: modified antibody on immobilized SIRPa-His, CD28Fc added and detected with mouse anti-human CD28
T3 construct: not shown: Fc; not specified
From the text: as §1

[5] = biological target: T2, recombinant hSIRPa (Sino Biologicals, …); assay: ELISA on immobilized SIRPa-His, peroxidase anti-human IgG, DO 450nm [panel ICOSL]
Method: as §3

[6] = biological target: T2, recombinant hSIRPa (Sino Biologicals, …); assay: competition ELISA on coated SIRPa-His; competitor biotinylated CD47-Fc at 6 ug/ml, streptavidin-peroxidase [panel 4-1BBL]
Method: as §2

[7] = biological target: T4, PD1His (human, UniProt Q15116 25-170, limits assumed); assay: ELISA: modified antibody (concentration on the axis) captured on SIRPa-His, then PD1His, detected with mouse anti-His [panel PDL1]
T4 construct: not shown: His tag
From the text: as §1

[8] = biological target: T2, recombinant hSIRPa (Sino Biologicals, …); assay: competition ELISA on coated SIRPa-His; competitor biotinylated CD47-Fc at 6 ug/ml, streptavidin-peroxidase [panel PDL1]
Method: as §2

[9] = biological target: T3, CD28Fc; assay: ELISA: modified antibody (concentration on the axis) captured on SIRPa-His, then CD28Fc, detected with mouse anti-human CD28 [panel ICOSL]
From the text: as §1

[10] = biological target: T2, recombinant hSIRPa (Sino Biologicals, …); assay: BLI (Blitz); SIRPa-His on Ni-NTA biosensor, antibody at 20 ug/ml, no SP-D [B, table A]
[11] = biological target: T2, recombinant hSIRPa (Sino Biologicals, …); assay: SPR (Biacore); SIRPa-His immobilized on CM5 chip, antibody injected
Method: FIG. 2. Affinity analysis by Biacore of anti-SIRP antibodies on human SIRPa recombinant protein. SIRPa-His recombinant protein was immobilized onto a CM5 chip at 5 μg/ml (500 RU) and the indicated antibodies were added at different concentration.
Method: Recombinant hSIRPa (Sino Biologicals, Beijing, China; reference 11612-H08H) was immobilized into a CM5 sensor chip (GeHealthcare; France) at 5 μg/ml (500 RU) and antibodies were applied at different concentrations with a flow rate of 40 μl/min. Analysis was performed with a BIAcore 3000 (Biacore, GeHealthcare).

[12] = biological target: T2, recombinant hSIRPa (Sino Biologicals, …); assay: competition ELISA on immobilized SIRPa; competitor CD47Fc at 0.04 ug/ml, anti-human Fc detection
Method: as §2

[13] = biological target: T2, recombinant hSIRPa (Sino Biologicals, …); assay: BLI (Blitz); SIRPa-His on Ni-NTA biosensor pre-incubated with SP-D at 100 ug/ml, then antibody at 20 ug/ml [B, table A]
Method: FIG. 6. […] SIRPa-His recombinant protein was immobilized onto a NINTA biosensor at 10 μg/ml and the anti-SIRPa antibody was added at 20 μg/ml (saturating concentration).
In a first step, Sirp-a (His) recombinant protein (Sino Biologicals, Beijing, China; reference 11612-H08H) was immobilized at 10 μg/ml by histidine tail into a Ni-NTA biosensor (Forte Bio; USA; reference 18-0029) for 30 seconds. […] Then, anti-SIRPa antibodies were associated at 20 μg/mL (saturating concentration) for 120 seconds. The dissociation of anti-SIRPa antibody was made in kinetics buffer for 120 seconds. Analysis data was made with the Blitz pro 1.2 software, which calculated association constant (ka) and dissociation constant (kd) and determined the affinity constant KD […].

IC50 (read off the curve) [6]: ~0.3 µg/mL
B3: modified anti-SIRPa HEFLB antibody with ECD of 4-1BBL on the heavy chain (antibody, human IgG4 S228P, kappa)
heavy: not shown
light: DVVMTQSPLSLPVTLGQPASISCRSSQSLVHSYGNTYLYWFQQRPGQSPRLLIYRVSNRFSGVPDRFSGSGSGTDFTLKISRVEAEDVGVYYCFQGTHVPYTFGGGTKVEIKRTVAAPSVFIFPPSDEQLKSGTASVVCLLNNFYPREAKVQWKVDNALQSGNSQESVTEQDSKDSTYSLSSTLTLSKADYEKHKVYACEVTHQGLSSPVTKSFNRGEC
notes: as m25, ECD of 4-1BBL; also called VHprot+VL (4-1BBL); VH-4-1BBL

EC50 (read off the curve) [5]: ~0.006 µg/mL
binding result [9]: binds
B5: modified anti-SIRPa HEFLB antibody with ECD of ICOSL on the light chain (antibody, human IgG4 S228P, kappa)
heavy: not shown
light: DVVMTQSPLSLPVTLGQPASISCRSSQSLVHSYGNTYLYWFQQRPGQSPRLLIYRVSNRFSGVPDRFSGSGSGTDFTLKISRVEAEDVGVYYCFQGTHVPYTFGGGTKVEIKRTVAAPSVFIFPPSDEQLKSGTASVVCLLNNFYPREAKVQWKVDNALQSGNSQESVTEQDSKDSTYSLSSTLTLSKADYEKHKVYACEVTHQGLSSPVTKSFNRGECGGGGSGGGGSGGGGSDTQEKEVRAMVGSDVELSCACPEGSRFDLNDVYVYWQTSESKTVVTYHIPQNSSLENVDSRYRNRALMSPAGMLRGDFSLRLFNVTPQDEQKFHCLVLSQSLGFQEVLSVEVTLHVAANFSVPVVSAPHSPSQDELTFTCTSINGYPRPNVYWINKTDNSLLDQALQNDTVFLNMRGLYDVVSVLRIARTPSVNIGCCIENVLLQQNLTVGSQTGNDIGERDKITENPVSTGEKNAAT
notes: as m32, ECD of ICOSL; also called VH+VLprot (ICOSL); HEF + LB-ICOSL

Kd [10]: 111 nM
koff [10]: 0.00176 s⁻¹
kon [10]: 15800 M⁻¹ s⁻¹
Kd [11]: 0.193 nM
koff [11]: 1.2e-05 s⁻¹
kon [11]: 62300 M⁻¹ s⁻¹
IC50 (read off the curve) [12]: ~0.5 µg/mL
Kd [13]: 28.6 nM
koff [13]: 0.0109 s⁻¹
kon [13]: 380000 M⁻¹ s⁻¹
B6: mouse antibody 18D5 (antibody, mouse IgG2b, kappa)
heavy: QVQLQQPGAELVRPGSSVKLSCKASGYTFTSYWVHWVKQRPIQGLEWIGNIDPSDSDTHYNQKFKDKASLTVDKSSSTAYMQLSSLTFEDSAVYYCVRGGTGTMAWFAYWGQGTLVTVSAAKTTPPSVYPLAPGCGDTTGSSVTLGCLVKGYFPESVTVTWNSGSLSSSVHTFPALLQSGLYTMSSSVTVPSSTWPSQTVTCSVAHPASSTTVDKKLEPSGPISTINPCPPCKECHKCPAPNLEGGPSVFIFPPNIKDVLMISLTPKVTCVVVDVSEDDPDVQISWFVNNVEVHTAQTQTHREDYNSTIRVVSTLPIQHQDWMSGKEFKCKVNNKDLPSPIERTISKIKGLVRAPQVYILPPPAEQLSRKDVSLTCLVVGFNPGDISVEWTSNGHTEENYKDTAPVLDSDGSYFIYSKLNMKTSKWEKTDSFSCNVRHEGLKNYYLKKTISRSPGK
light: DVVMTQTPLSLPVSLGDQASISCRSSQSLVHSYGNTYLYWYLQKPGQSPKLLIYRVSNRFSGVPDRFSGSGSGTDFTLKISRVEAEDLGVYFCFQGTHVPYTFGSGTKLEIKRADAAPTVSIFPPSSEQLTSGGASVVCFLNNFYPKDINVKWKIDGSERQNGVLNSWTDQDSKDSTYSMSSTLTLTKDEYERHNSYTCEATHKTSTSPIVKSFNRNEC
notes: mouse monoclonal anti-human SIRPa antibody; also called m18D5; m18D5 clone

The next lines start with the binder.

B1: modified anti-SIRPa HEFLB antibody with ECD of PD1 on the heavy chain (antibody, human IgG4 S228P, kappa)
heavy: not shown
light: B3 light
notes: also called VHprot+VL (PD1); HEF-PD1 + LB
binding result [1]: binds
IC50 (read off the curve) [2]: ~0.2 µg/mL
EC50 (read off the curve) [3]: ~0.008 µg/mL

B2: modified anti-SIRPa HEFLB antibody with ECD of ICOSL on the heavy chain (antibody, human IgG4 S228P, kappa)
heavy: not shown
light: B3 light
notes: as m25, ECD of ICOSL; also called VHprot+VL (ICOSL); HEF-ICOSL + LB
binding result [4]: binds
EC50 (read off the curve) [5]: ~0.008 µg/mL

B4: modified anti-SIRPa HEFLB antibody with ECD of PDL1 on the heavy chain (antibody, human IgG4 S228P, kappa)
heavy: not shown
light: B3 light
notes: as m25, ECD of PDL1; also called VHprot+VL (PDL1); VH-PDL1
binding result [7]: binds
IC50 (read off the curve) [8]: ~0.3 µg/mL
